In paper PMC6309207 (Journal of neurochemistry, 2015):
No end group written: not given here. *: point of attachment. Farnesyl = CC(C)=CCC/C(C)=C/CC/C(C)=C/C*

T1: human aryl hydrocarbon receptor-interacting protein-like 1 (hAIPL1), full length, His6-tagged (human, UniProt Q9NZN9 1-384)
T1 sequence (looked up): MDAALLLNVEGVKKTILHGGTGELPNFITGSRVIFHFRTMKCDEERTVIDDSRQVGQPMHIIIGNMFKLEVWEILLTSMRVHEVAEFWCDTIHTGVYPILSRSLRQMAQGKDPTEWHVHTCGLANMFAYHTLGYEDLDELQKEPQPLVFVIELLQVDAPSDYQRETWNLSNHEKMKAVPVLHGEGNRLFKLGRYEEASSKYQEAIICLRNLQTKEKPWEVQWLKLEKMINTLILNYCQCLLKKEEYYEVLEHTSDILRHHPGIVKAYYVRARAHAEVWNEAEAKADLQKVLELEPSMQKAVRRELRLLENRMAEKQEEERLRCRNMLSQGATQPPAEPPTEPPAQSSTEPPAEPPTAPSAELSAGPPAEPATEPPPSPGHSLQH

T2: hAIPL1 R302L mutant, His6-tagged (human, UniProt Q9NZN9 1-384, R302L)
T2 sequence (looked up): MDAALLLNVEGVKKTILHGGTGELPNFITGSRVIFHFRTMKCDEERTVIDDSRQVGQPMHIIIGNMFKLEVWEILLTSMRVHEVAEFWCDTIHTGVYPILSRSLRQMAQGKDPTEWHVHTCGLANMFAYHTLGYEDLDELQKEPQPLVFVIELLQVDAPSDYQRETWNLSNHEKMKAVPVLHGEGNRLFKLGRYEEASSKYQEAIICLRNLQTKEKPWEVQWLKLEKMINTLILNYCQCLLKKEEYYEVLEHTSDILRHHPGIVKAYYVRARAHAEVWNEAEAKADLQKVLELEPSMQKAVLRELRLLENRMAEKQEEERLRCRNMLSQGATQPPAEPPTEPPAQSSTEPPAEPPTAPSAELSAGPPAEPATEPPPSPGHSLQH

T3: hAIPL1 P376S mutant, His6-tagged (human, UniProt Q9NZN9 1-384, P376S)
T3 sequence (looked up): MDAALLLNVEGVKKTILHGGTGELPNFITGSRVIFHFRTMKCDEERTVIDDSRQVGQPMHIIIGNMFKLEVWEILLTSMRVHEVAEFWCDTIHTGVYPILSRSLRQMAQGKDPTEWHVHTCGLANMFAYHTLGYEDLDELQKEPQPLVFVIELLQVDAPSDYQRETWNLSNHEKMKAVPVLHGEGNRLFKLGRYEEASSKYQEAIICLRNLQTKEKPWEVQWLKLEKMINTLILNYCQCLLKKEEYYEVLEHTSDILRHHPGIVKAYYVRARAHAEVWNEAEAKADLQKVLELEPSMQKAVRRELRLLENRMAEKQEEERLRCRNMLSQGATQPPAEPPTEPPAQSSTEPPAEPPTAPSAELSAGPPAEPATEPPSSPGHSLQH

T4: hAIPL1 1–316 lacking the proline-rich domain, His6-tagged (human, UniProt Q9NZN9 1-316)
T4 sequence (looked up): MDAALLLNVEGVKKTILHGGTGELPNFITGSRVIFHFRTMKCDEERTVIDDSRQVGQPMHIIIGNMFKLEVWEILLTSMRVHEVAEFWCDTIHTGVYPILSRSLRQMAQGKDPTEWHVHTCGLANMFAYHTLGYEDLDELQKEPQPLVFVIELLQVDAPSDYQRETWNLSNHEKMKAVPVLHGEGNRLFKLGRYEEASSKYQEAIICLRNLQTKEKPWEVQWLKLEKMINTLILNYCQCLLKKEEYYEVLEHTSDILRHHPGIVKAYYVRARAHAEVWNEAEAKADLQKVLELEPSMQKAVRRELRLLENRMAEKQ


Key:
[1] = molecular target: FITC-labeled C-terminal peptide of HSP90a; assay: fluorescence polarisation
[2] = molecular target: AMCA-labeled C-terminal peptide of mouse PDE6A, S-farnesylated and carboxymethylated (mouse); assay: FRET or BRET
[3] = molecular target: PDE6 γ-subunit with a single Cys at position 35, labeled with 3-(bromo acetyl)-7-diethyl aminocoumarine (UniProt P04972); assay: other fluorescence titration
[4] = molecular target: T1, human aryl hydrocarbon …; assay: FRET or BRET
[5] = molecular target: T2, hAIPL1 R302L mutant, His6-tagged; assay: FRET or BRET
[6] = molecular target: T3, hAIPL1 P376S mutant, His6-tagged; assay: FRET or BRET
[7] = molecular target: T4, hAIPL1 1–316 lacking the proline-rich …; assay: FRET or BRET
[8] = molecular target: T1, human aryl hydrocarbon …; assay: other fluorescence titration

Molecule | Kd [1] [nM] | Kd [3] [nM] | further results
hAIPL1 P351∆12 mutant, His6-tagged (from UniProt Q9NZN9 1-384) (natural protein) | 32800 | 1380 | Kd [2]: 140 nM
hAIPL1 1–316 lacking the proline-rich domain, His6-tagged (domain or fragment) MDAALLLNVEGVKKTILHGGTGELPNFITGSRVIFHFRTMKCDEERTVIDDSRQVGQPMHIIIGNMFKLEVWEILLTSMRVHEVAEFWCDTIHTGVYPILSRSLRQMAQGKDPTEWHVHTCGLANMFAYHTLGYEDLDELQKEPQPLVFVIELLQVDAPSDYQRETWNLSNHEKMKAVPVLHGEGNRLFKLGRYEEASSKYQEAIICLRNLQTKEKPWEVQWLKLEKMINTLILNYCQCLLKKEEYYEVLEHTSDILRHHPGIVKAYYVRARAHAEVWNEAEAKADLQKVLELEPSMQKAVRRELRLLENRMAEKQ | 20800 | 730 | 
human aryl hydrocarbon receptor-interacting protein-like 1 (hAIPL1), full length, His6-tagged (natural protein) MDAALLLNVEGVKKTILHGGTGELPNFITGSRVIFHFRTMKCDEERTVIDDSRQVGQPMHIIIGNMFKLEVWEILLTSMRVHEVAEFWCDTIHTGVYPILSRSLRQMAQGKDPTEWHVHTCGLANMFAYHTLGYEDLDELQKEPQPLVFVIELLQVDAPSDYQRETWNLSNHEKMKAVPVLHGEGNRLFKLGRYEEASSKYQEAIICLRNLQTKEKPWEVQWLKLEKMINTLILNYCQCLLKKEEYYEVLEHTSDILRHHPGIVKAYYVRARAHAEVWNEAEAKADLQKVLELEPSMQKAVRRELRLLENRMAEKQEEERLRCRNMLSQGATQPPAEPPTEPPAQSSTEPPAEPPTAPSAELSAGPPAEPATEPPPSPGHSLQH | 20800 | 990 | 
hAIPL1 R302L mutant, His6-tagged (natural protein) MDAALLLNVEGVKKTILHGGTGELPNFITGSRVIFHFRTMKCDEERTVIDDSRQVGQPMHIIIGNMFKLEVWEILLTSMRVHEVAEFWCDTIHTGVYPILSRSLRQMAQGKDPTEWHVHTCGLANMFAYHTLGYEDLDELQKEPQPLVFVIELLQVDAPSDYQRETWNLSNHEKMKAVPVLHGEGNRLFKLGRYEEASSKYQEAIICLRNLQTKEKPWEVQWLKLEKMINTLILNYCQCLLKKEEYYEVLEHTSDILRHHPGIVKAYYVRARAHAEVWNEAEAKADLQKVLELEPSMQKAVLRELRLLENRMAEKQEEERLRCRNMLSQGATQPPAEPPTEPPAQSSTEPPAEPPTAPSAELSAGPPAEPATEPPPSPGHSLQH | 27200 | 810 | 
hAIPL1 P376S mutant, His6-tagged (natural protein) MDAALLLNVEGVKKTILHGGTGELPNFITGSRVIFHFRTMKCDEERTVIDDSRQVGQPMHIIIGNMFKLEVWEILLTSMRVHEVAEFWCDTIHTGVYPILSRSLRQMAQGKDPTEWHVHTCGLANMFAYHTLGYEDLDELQKEPQPLVFVIELLQVDAPSDYQRETWNLSNHEKMKAVPVLHGEGNRLFKLGRYEEASSKYQEAIICLRNLQTKEKPWEVQWLKLEKMINTLILNYCQCLLKKEEYYEVLEHTSDILRHHPGIVKAYYVRARAHAEVWNEAEAKADLQKVLELEPSMQKAVRRELRLLENRMAEKQEEERLRCRNMLSQGATQPPAEPPTEPPAQSSTEPPAEPPTAPSAELSAGPPAEPATEPPSSPGHSLQH | 23000 | 950 | 
GAPASKSC(Farnesyl) (also: Cys carboxymethylated, AMCA-X conjugated) [AMCA-labeled C-terminal peptide of mouse PDE6A, S-farnesylated and carboxymethylated] |  |  | Kd [4]: 110 nM; Kd [5]: 160 nM; Kd [6]: 200 nM; Kd [7]: 240 nM
PDE6 γ-subunit with a single Cys at position 68, labeled with 3-(bromo acetyl)-7-diethyl aminocoumarine (natural protein, UniProt P04972 1-87, looked up, 3-(bromo acetyl)-7-diethyl aminocoumarine (BC) on Cys68) MNLEPPKAEIRSATRVMGGPVTPRKGPPKFKQRQTRQFKSKPPKKGVQGFGDDIPGMEGLGTDITVICPWEAFNHLELHELAQYGII |  |  | Kd [8]: 2500 nM
